Data from the DeepSol protein solubility set.

Assay: soluble on expression in E. coli; label from the status in PepcDB or PDB records

Sequence | soluble on expression in E. coli
MTSENSESQDIWLTDEQQDVWLDVWTMRIGLPARLDAQLKEAAGVSHFEYFTMAQISMAPEHRVRMSELAELSDMTLSHLSRVVTRLEKAGWVKRVPDPDDGRATVAVLTDSGWEKVKATAPGHVKEVRRLVFDDLTPEELKVMGTAMKKIVNRLDMSNRLPRV | not soluble
MTSKVGPVALKTFREKLGPELLEVFDKSYKSFTDVQVLSGTHLLNLSDVVVESPTGSGKTLAFVLPMMRMIQNAKLQPADIGALILSPSRELCSQIVSVIQPFAEKLNLTVETVTGGQKVDKNIKMFKNKNVNILVATPGRLFQIIQHEKTLIARKMRTLQLLVIDEADRFNEIQFEDHMREILSCIPKQRRTGLFSATQVKEEDDLMVFGLRNAKQVKVAQERNSAAPSTLKNYYVECRADEKTSVCLEFIRQRTDKKILIFFPSCNSVRYFYKIFERCLGKRPLFAVHGKCSNPHRASQIKAFSDSTNGVMISTDVMARGIDISDIDWVIQFDLPKHSSWFVHRAGRTARCGREGNALILIASEQLAYVNFLDNHEKVKLDEIKVPTNNSRKSEELRQKMIKIQVSDRAILEAGTRAFVSHVESYAKHDCHLICSLDDLNVVGLANSYALLRLPKMRELSQRKDLDMFDRSAIETSEIKYADVKLEANRETVMKEKHEKKVETLAAKDKKRREKEARKLKKMGGRFRNGGGTGRKAEEKKALKRKAEEEDDAQNDIRLLKRIKRGKLSKKEIKDVL | not soluble
MTSLQRKGPQTRILSTGEEEKLKRDQALVSAFKQQKLEKEAQKNWDLFYKRNSTNFFKDRHWTTREFEELRSCREYEGQKLTLLEAGCGVGNCLFPLLEEDSNIFAYACDFSPRAVDYVKQHPLYNAERCKVFQCDLTRDDLLDHIPPESVDAVTLIFVLSAVHPEKMHLVLLNVYKVLKPGRSVLFRDYGLNDHAMLRFKAGSKLGENFYVRQDGTRSYFFTDEFLAKLFVDAGYEEVVNEYVFRETVNKKEGLCVPRVFLQSKFRKPPKDPAPTTDSASLLRKEF | not soluble
MTSNKQLINERDHAESALADMYFAATGDEPEWSNWFGFSDAVDAVVDRIADLEAKQPSPVVPEGLVKAVRFYEQVKRENPPVETEAWKDAIDWVLKESCQAVNIDTNGD | soluble
MTSSFLYVLFTVSCLAALVSISEACFASGICGGGCPPPPPPMCSGGCGGGYSCGSYGCYRARARGSKTLSFKKPSEMNPDERFMKCCEDRNLPDSCLSKCSYRSYTKSALQSMYFKQDSCPMQAAADIQFCAAQGKDHTACCARNAVGTTLAGNKCFTFCDQRPGNVTQLDMSYLACYDRFENMKACFYQKASEASDPIVSFSNDRDNNREFAVDTETAEFRRPSQEHFRAPTSPQLPQNPLFAVQNLLARTFGQ | not soluble
MTSSIPFRSFNEKYECNDDDNFTYSSTEQKRIETMLFENYNSLVLEPFKTTSDEDLAELTIFRQKHASYLLRYLKNCPSSYATLDASRSWMCYWGVNALKILDAEIPNDVIENIIVFLKSCEHPEGGYGGGPGQLAHLAPTYAAVMCLVSLQKEEALRSINRVTLFNFLKKCKHESGGFYMHEGGEIDMRSAYCALATCEIVGLPMDEISNGVAEWIISCQSFEGGFGGEPYTEAHGGYTFCAVASLVLLNRFRLADMEGLLRWATRRQMRFEGGFQGRTNKLVDGCYSFWQGAIFPLLDGEMEREGRSLEKGLFEARMLEEYILVGCQSVHGGFKDKPDKPVDLYHTCYVLSGLSVAQKYSLARDGKILGGDVNMLAEINPVFNVTIASEQFAKEFFTSH | not soluble
MTSVDCTAYGPELRALAARLPRTPRADLYAFLDAAHTAAASLPGALATALDTFNAEGSEDGHLLLRGLPVEADADLPTTPSSTPAPEDRSLLTMEAMLGLVGRRLGLHTGYRELRSGTVYHDVYPSPGAHHLSSETSETLLEFHTEMAYHRLQPNYVMLACSRADHERTAATLVASVRKALPLLDERTRARLLDRRMPCCVDVAFRGGVDDPGAIAQVKPLYGDADDPFLGYDRELLAPEDPADKEAVAALSKALDEVTEAVYLEPGDLLIVDNFRTTHARTPFSPRWDGKDRWLHRVYIRTDRNGQLSGGERAGDVVAFTPRG | soluble
MTSYEEETDYRNVPRELLDNNIPMGRGMIKWAPFATLPEQFETIQQYIIDQNKITRPVLSDDQLAELNIRLHEALQYAQPVEVKFYNNGFVDSVRLTIYRIDAINYEIDGYVYNQQQRQKISIFDILDIVLLP | not soluble
